Experimental data as given in patent publication US12102672B2, “Immunogenic sequences from a phage tail length tape measure protein, bacteria expressing the same and their use in treating a cancer” (INSTITUT GUSTAVE ROUSSY, priority 2017, dated 2024).

Legend:
[1] = tested on: prophage 1 and 2 of EH13144; conditions: mitomycin C 1 μg/ml; 37° C. and 42° C.; without capside disruption
Excerpt: Protocol for phage excision by mitomycin C.
PCR was run to detect specific sequences of the prophage 1 or 2.

[2] = molecular target: HLA-A*0201 with TMP peptide … on peptide-pulsed autologous cells (human; Enterococcus hirae 13144 (prophage 2, TMP))
[3] = molecular target: HLA-A*0201 with TMP peptide […] on peptide-pulsed autologous cells (human; Enterococcus hirae 13144 (prophage 2, TMP))

Row | Compound | prophage 1 and 2 excision from EH13144 [1] | IFNγ ELISPOT after in vitro stimulation [2] | IFNγ ELISPOT after in vitro stimulation [3]
1 | CO[C@@]12[C@H](COC(N)=O)C3=C(C(=O)C(C)=C(N)C3=O)N1C[C@@H]1N[C@@H]12 [mitomycin C] | prophage 1 and 2 excision | – | –
2 | CD8+ T cells from PBMC of six HLA-A2+ healthy volunteers (cells without a defined receptor) | – | 50 % of HV | 50 % of HV
